Measurements as given in patent US20230257727.
Where a chain is given by its changes, count along the chain named.

What was measured:
[1] = target: T1, M15-LAAR
T1 chain: LAAR

[2] = target: Polypeptides with M15-L-labeled P1 residues A, I, L, M, Q, V
[3] = target: T2, M19-LAAR
T2 chain: LAAR

[4] = target: M15-L-P1-AR peptides with D or E in the P1 position
[5] = target: T3, M19-AAAR
T3 chain: AAAR

[6] = target: T4, Test peptide LMSHNARGAEDDVVRGGGGK linked to a DNA oligo
T4 chain: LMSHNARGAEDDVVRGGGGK

B1: M15-L_Z001 modified cleavase (Thermomonas hydrothermalis S46 DPP scaffold) (protein)
chain: MHKTRLVAALAAALATLAPAAWADEGMWVPQQLPEIAGALKKAGLKLDPKQLSDLTGDPMGAVVSLGGCTGSFVSPQGLVATNHHCAYGAIQLNSTPEKNLIKDGFNAPTQADELSAGPNARIYVLEGITDVTAQAKAAMAAAGNDPVARANALEAFEKKITSDCEAEPGYRCRVYSFMGGITYRLFKNLEIKDVRLVYAPPSSVGKFGGDIDMGMWPTHTGDFSFYRAYVGKDGKPAPYSKDNVPYRPKHWLKIADTPLGEGDFVMVAGYPGRTDRYALVAEFENTQNWLYPAISKAYKDQIALVEAAAKDNPEIAVKYAAALAGWNRTSKNFDGQLEGFKRNDVLAIKRREEAAVLEWLRARGKAGTPALEAHAALVKLVADTARTQERDLVLGSFNRTGIIGVAVNLYRLAIERQKPDAEREPGYQQRDLPVIEGSLKQMERRYVPAMDRQLRAYWLDRYVALPAAQHVAAVDAWLGGSDKAAAEAALARLDQSRLGSLEERLKWFNADRAAFEASTDPAIQYAVAVMPTLLAMEQQAKTRYGVALEARPRYLQAVVDYKKSKGQAVYPDANSTLRITYGHVKGYTGLNGKVYTPFTTLEEVAAKETGVEPFDNPKALLEAVAAKRYAGLADARLGTVPVNFLADLDITGGNSGSPVLDANGRLVGLAFAGTLESVASNWVFDPVLTRMISVDQRYMRWIMQEVMPAPQLLEELGVPPRQ
cleavage efficiency, time course 5, 10, 20, 30 and 60 minutes [1]: the M15-L_Z001 cleavase provided better specificity towards the M15-labeled polypeptide | cleavage [2]: provided 100% cleavage

B2: M19_053 cleavase clone (Thermomonas hydrothermalis S46 DPP scaffold) (protein)
chain: B1 chain with R329P
cleavage efficiency, time course 5, 10, 20, 30 and 60 minutes [3]: the newly selected cleavase clone M19_053 provided better specificity towards the M19-labeled polypeptide

B3: M15-L_Z002 modified cleavase (Thermomonas hydrothermalis S46 DPP scaffold) (protein)
chain: B1 chain
cleavage profile [4]: M15-L_Z002, having specificity towards D and E in the P1 position

B4: P1 cutter 1 (Thermomonas hydrothermalis S46 DPP scaffold) (protein)
chain: B1 chain with M214T, G215M, T219K, R329Y, A673D
cleavage, product identified by LC-MS [5]: the observed mass of the cleaved product was 230.2 Da, which matched well with the expected mass for the M19-A (M+H) part (231.2 Da)

B5: Unmodified dipeptidyl aminopeptidase DAP BII (SEQ ID NO: 13) (protein)
chain: GEGMWVPQQLPEIAGPLKKAGLKLSPQQISDLTGDPMGAVVALGGCTASFVSPNGLVVTNHHCAYGAIQLNSTAENNLIKNGFNAPTTADEVSAGPNARVFVLDEITDVTKDAKAAIAAAGDDALARTKALEAFEKKLIADCEAEAGFRCRLYSFSGGNTYRLFKNLEIKDVRLAYAPPGSVGKFGGDIDNWMWPRHTGDFAFYRAYVGKDGKPAAFSKDNVPYQPKHWLKFADQPLGAGDFVMVAGYPGSTNRYALAAEFDNTAQWTYPTIARHYKNQIAMVEAAGKQNADIQVKYAATMAGWNNTSKNYDGQLEGFKRIDAAGQKLREEAAVLGWLKGQGAKGQPALDAHAKLLDLLEQSKATRDRDLTLALFNNTAMLGSATQLYRLSIEREKPNAERESGYQERDLPAIEGGLKQLERRYVAAMDRQLQEYWLNEYIKLPADQRVAAVDAWLGGNDAAAVKRALDRLAGTKLGSTEERLKWFAADRKAFEASNDPAIQYAVAVMPTLLKLEQERKTRAGENLAARPVYLQALADYKKSQGEFVYPDANLSLRITFGNVMGYAPKDGMEYTPFTTLEGVVAKETGQDPFDSPKALLDAVAAKRYGGLEDKRIGSVPVNYLSDLDITGGNSGSPVLDAHGKLVGLAFDGNWESVSSNWVFDPKMTRMIAVDGRYLRWIMQEVYPAPQLLKEMNVGK
cleavage of a peptide-DNA fusion, gel bands at 0, 5, 30, 45, 60 min [6]: would continue gradually cleaving the polypeptide, creating multiple bands during the cleavage reaction (FIG. 10)
